# Results as given in article PMC6838198, “Insights into the assembly and architecture of a Staufen-mediated mRNA decay (SMD)-competent mRNP” (Nature Communications, 2019).
# T1: GST-UPF1CH (human, UniProt Q92900-2 115-272)
# T1 construct: human UPF1, N-terminal cysteine-histidine-rich (CH) domain; also called UPF1CH domain; source: E. coli BL21 (DE3) STAR pRARE, purified (Ni-NTA, heparin, SEC)
# T1 sequence (looked up): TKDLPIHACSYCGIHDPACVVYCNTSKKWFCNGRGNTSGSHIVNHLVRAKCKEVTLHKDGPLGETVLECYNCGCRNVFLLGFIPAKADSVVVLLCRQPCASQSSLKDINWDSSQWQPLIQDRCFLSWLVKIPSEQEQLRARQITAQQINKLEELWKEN
# Legend:
# [1] = molecular target: Stau1 dsRBD2-3-4-dd (human); assay: SEC-MALS; about 350 µg of each Stau1 construct on Superdex 200 10/300; 20 mM HEPES pH 7.5, 150 mM NaCl, 0.02% NaN3; dimer to monomers
# GST-UPF1CH [2] = molecular target: T1, GST-UPF1CH; assay: pull-down; as the GST pull-down, with UPF2 added as a third purified protein; details: both partners purified
# [3] = molecular target: the molecule itself; assay: SEC; analytical SEC of full-length Stau1 alone; monomer and dimer peaks
# GST-UPF1CH [4] = molecular target: T1, GST-UPF1CH; assay: pull-down; GST-tagged bait and prey mixed in equal amounts, 4 °C 16 h, Glutathione Sepharose; 20 mM HEPES pH 7.5, 150 mM NaCl, 10% glycerol, 0.1% NP-40; eluted with 20 mM glutathione, SDS-PAGE and Coomassie; bands quantified with ImageJ; details: both partners purified
# [5] = molecular target: GST-UPF1 (CH domain and helicase core) (human) (UniProt Q92900); assay: pull-down; as the GST pull-down, with UPF2 added as a third purified protein
stoichiometry N [1],fold increase of co-precipitated Stau1 on addition of UPF2 (GST-UPF1CH [2]),fold lower amount bound than UPF2s (GST-UPF1CH [4]),fold increase of co-precipitated Stau1 on addition of UPF2 [5],Molecule,stoichiometry N [3]
2,,,,Stau1 dsRBD2-3-4-dd (domain or fragment),
,2.3 fold,3.3 fold,3.3 fold,"Stau1, full length (Stau1_63, the longer isoform, 577 residues) (natural protein, human, UniProt O95793 1-577, looked up, human Stau1, longer isoform Stau1_63, 577 residues; In rapid equilibrium between monomer and dimer in solution; source: E. coli BL21 (DE3) STAR pRARE, purified (Ni-NTA, heparin, SEC)) MSQVQVQVQNPSAALSGSQILNKNQSLLSQPLMSIPSTTSSLPSENAGRPIQNSALPSASITSTSAAAESITPTVELNALCMKLGKKPMYKPVDPYSRMQSTYNYNMRGGAYPPRYFYPFPVPPLLYQVELSVGGQQFNGKGKTRQAAKHDAAAKALRILQNEPLPERLEVNGRESEEENLNKSEISQVFEIALKRNLPVNFEVARESGPPHMKNFVTKVSVGEFVGEGEGKSKKISKKNAAIAVLEELKKLPPLPAVERVKPRIKKKTKPIVKPQTSPEYGQGINPISRLAQIQQAKKEKEPEYTLLTERGLPRRREFVMQVKVGNHTAEGTGTNKKVAKRNAAENMLEILGFKVPQAQPTKPALKSEEKTPIKKPGDGRKVTFFEPGSGDENGTSNKEDEFRMPYLSHQQLPAGILPMVPEVAQAVGVSQGHHTKDFTRAAPNPAKATVTAMIARELLYGGTSPTAETILKNNISSGHVPHGPLTRPSEQLDYLSRVQGFQVEYKDFPKNNKNEFVSLINCSSQPPLISHGIGKDVESCHDMAALNILKLLSELDQQSTEMPRTGNGPMSVCGRC",2
